Test results: US20060172360

Legend:
[1] = molecular target: GST (glutathione S-transferase, negative control substrate) [GST: P08515]
[2] = molecular target: GST-MKK7 (unactive/inactive, Upstate) [GST: P08515]

| Protein | in-vitro phosphorylation of the substrate (immune complex phosphorylation method, [γ-32P]ATP, SDS-PAGE, autoradiography) [1] | in-vitro phosphorylation of the substrate (immune complex phosphorylation method, [γ-32P]ATP, SDS-PAGE, autoradiography) [2] |
| --- | --- | --- |
| FLAG-PAK4 (human p21-activated kinase 4 ligated with FLAG-tag at its N-terminus) (protein) MFGKRKKRVEISAPSNFEHRVHTGFDQHEQKFTGLPRQWQSLIEESARRPKPLVDPACITSIQPGAPKTIVRGSKGAKDGALTLLLDEFENMSVTRSNSLRRDSPPPPARARQENGMPEEPATTARGGPGKAGSRGRFAGHSEAGGGSGDRRRAGPEKRPKSSREGSGGPQESSRDKRPLSGPDVGTPQPAGLASGAKLAAGRPFNTYPRADTDHPSRGAQGEPHDVAPNGPSAGGLAIPQSSSSSSRPPTRARGAPSPGVLGPHASEPQLAPPACTPAAPAVPGPPGPRSPQREPQRVSHEQFRAALQLVVDPGDPRSYLDNFIKIGEGSTGIVCIATVRSSGKLVAVKKMDLRKQQRRELLFNEVVIMRDYQHENVVEMYNSYLVGDELWVVMEFLEGGALTDIVTHTRMNEEQIAAVCLAVLQALSVLHAQGVIHRDIKSDSILLTHDGRVKLSDFGFCAQVSKEVPRRKSLVGTPYWMAPELISRLPYGPEVDIWSLGIMVIEMVDGEPPYFNEPPLKAMKMIRDNLPPRLKNLHKVSPSLKGFLDRLLVRDPAQRATAAELLKHPFLAKAGPPASIVPLMRQNRTR | The phosphorylation was not observed when GST was used as a substrate for a negative control | The phosphorylation of GST-MKK7 by PAK4 was observed |
| HA-JIK (human JNK/SAPK-inhibitory kinase ligated with HA-tag at its N-terminus) (protein) MRKGVLKDPEIADLFYKDDPEELFIGLHEIGHGSFGAVYFATNAHTSEVVAIKKMSYSGKQTHEKWQDILKEVKFLRQLKHPNTIEYKGCYLKEHTAWLVMEYCLGSASDLLEVHKKPLQEVEIAAITHGALHGLAYLHSHALIHRDIKAGNILLTEPGQVKLADFGSASMASPANSFVGTPYWMAPEVILAMDEGQYDGKVDIWSLGITCIELAERKPPLFNMNAMSALYHIAQNDSPTLQSNEWTDSFRRFVDYCLQKIPQERPTSAELLRHDFVRRDRPLRVLIDLIQRTKDAVRELDNLQYRKMKKILFQETRNGPLNESQEDEEDSEHGTSLNREMDSLGSNHSIPSMSVSTGSQSSSVNSMQEVMDESSSELVMMHDDESTINSSSSVVHKKDHVFIRDEAGHGDPRPEPRPTQSVQSQALHYRNRERFATIKSASLVTRQIHEHEQENELREQMSGYKRMRRQHQKQLIALENKLKAEMDEHRLKLQKEVETHANNSSIELEKLAKKQVAIIEKEAKVAAADEKKFQQQILAQQKKDLTTFLESQKKQYKICKEKIKEEMNEDHSTPKKEKQERISKHKENLQHTQAEEEAHLLTQQRLYYDKNCRFFKRKIMIKRHEVEQQNIREELNKKRTQKEMEHAMLIRHDESTRELEYRQLHTLQKLRMDLIRLQHQTELENQLEYNKRRERELHRKHVMELRQQPKNLKAMEMQIKKQFQDTCKVQTKQYKALKNHQLEVTPKNEHKTILKTLKDEQTRKLAILAEQYEQSINEMMASQALRLDEAQEAECQALRLQLQQEMELLNAYQSKIKMQTEAQHERELQKLEQRVSLRRAHLEQKIEEELAALQKERSERIKNLLERQEREIETFDMESLRMGFGNLVTLDFPKEDYR | The phosphorylation was not observed when GST was used as a substrate for a negative control | The phosphorylation of GST-MKK7 by JIK was observed |
